Consider 139 substances from the supplement of paper PMC12042874.

± gives the uncertainty stated by the source.

One data set is described as follows: amyloid nucleation score (Sup35N fusion, yeast selection) (log enrichment); library NNK1; higher = more nucleation; inactive = no reads after selection. In a few lines: (§1)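 Sup35N fusions to peptides of 20 random codons were expressed in psi-negative yeast, induced 24 hours with 100 μM copper sulfate, and grown 7 days at 30°C on medium lacking adenine and uracil. Input and output plasmid inserts were sequenced by Illumina. The nucleation score is the DiMSum log enrichment of output over input reads, centred on the mode score of non-aggregating sequences. Sequences with under 100 input reads were excluded.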
SVGGWLSYRSDV registered an amyloid nucleation score of -0.901 ± 0.89.

In turn, GVGLDCFDRTWFWMFQTPQC gave an amyloid nucleation score of 0.483 ± 0.35.

Take VSRTLAWLGMSRLNGSYGVC: the amyloid nucleation score is -0.197 ± 0.41.

The substance LYSDPKVCHN yielded an amyloid nucleation score of 4.74 ± 0.065. The same measure, in the same setting: the figure for TICNEINQFKAK is 0.35 ± 0.59; for YYLEGSNALYIKVDRILRLL it is -0.187 ± 0.54; for QRVVKVWWDTKPYVSMGSFL it is 0.563 ± 0.44.

As to TPRCLGERTISGISFYKV, the amyloid nucleation score is -1.04 ± 0.55. Same read-out and setting: the result for KYLVLHILHIWMCHRYVWGM reads -0.973 ± 0.6; that for MGGRGGTDCRASMYSSACMG, 1.74 ± 0.26; that for WVWKTNWWYTRRIASLWDSR, 1.7 ± 0.56. Consider WESDIFFMIGLVQRRQLTGP, for which the amyloid nucleation score stood at 2.91 ± 0.17. Same read-out and setting: the result for KSGLRTLFSGVGHCWDALVY reads 0.198 ± 0.45; that for QTKRSCCSFFVNL, 6.603 ± 0.05; that for QFVSLKFRVGLATS, 0.045 ± 0.95. On to YLLLLDGGPSPVLAIRHVNG, for which the amyloid nucleation score is -0.989 ± 0.76.

With WLVLHTNLMLGCSTRSMLCA, the amyloid nucleation score stood at 0.174 ± 0.5. Still for that read-out and setting: the entry for SIQLMNVFDQVVSQASIKHG is “inactive”; for SLMCSPNGDESRQWNPRARQ it is “inactive”. For FCTCSLKQVM, the amyloid nucleation score entry was “inactive”.

VTGHV: the amyloid nucleation score was -0.019 ± 0.49.

On to NSCQNPSEGF, for which the amyloid nucleation score was -0.376 ± 1.2. Same read-out and setting: the result for WCISTIGWRTDGCD reads “inactive”. Still for that read-out and setting: the result for MRKTFDAVLNAFFCKALFCY reads 0.759 ± 0.39; that for FNYHRRPLNYISNRQYGGLS, “inactive”.

In turn, NVTCSHPGFFYSIVKTYMFR registered an amyloid nucleation score of -0.877 ± 1.9. Same read-out and setting: the result for TRTLLNVHCCPSVW reads 6.614 ± 0.054; that for LIPSRFMVNGDTIL, 0.971 ± 0.28; that for NMLSLSRAAWKRN, “inactive”. Same read-out and setting: the result for SDYSLTCMGVYGEGKTRGNL reads 0.045 ± 0.32; that for HMRGLG, 6.77 ± 0.083. As for LVGSKSGVTRQRMALRWGGF, the amyloid nucleation score is -0.285 ± 1.4. On the same count and under the same terms, the result for AVSIRCFGRMMTLSGSKIAG reads 0.838 ± 0.25. Still for that read-out and setting: the result for FRNLTVGAWRPMPGERMPIG reads -0.182 ± 0.42; that for SVMNGVGPQWLVLTYLPVSR, -0.38 ± 1.5. Turning to TVRGCRCLAFPWFNG, the amyloid nucleation score was determined as 0.5 ± 0.48.

Turning to RFFNHPMSFANMKLRSECTR, the amyloid nucleation score was -0.832 ± 0.94.

In turn, HHCHSSGL showed an amyloid nucleation score of 0.981 ± 0.93. Same read-out and setting: the figure for IYCHWNGFRGPYVIPRGCVV is 0.819 ± 0.51. On the same count and under the same terms, the result for LPVLSGWTNTAA reads -0.73 ± 0.59; that for FPFFLMCMSSGFYSV, 2.35 ± 0.25; that for HLYGVR, 0.267 ± 0.84. Same read-out and setting: the figure for SRLSLT is 0.179 ± 0.82; for LHLRTVAGSWSNIFYLAAPM it is 0.433 ± 0.31; for FLCLI it is -2.52 ± 2.7.

In the case of ITPDVGSGTFEV, the amyloid nucleation score turned out to be 0.022 ± 1.1.

On to LEMVINSFRELSLAY, for which the amyloid nucleation score was -0.212 ± 0.46. The same measure, in the same setting: the figure for LQLYQVFSVHYEC is 3.08 ± 0.11; for YWLNNYYVVGNIS it is 2.57 ± 0.25. Still for that read-out and setting: the result for TGSQLWHIIFRC reads 0.214 ± 0.24; that for TTCLTQNLDQGSLLYKVLPR, 1.43 ± 0.18; that for KFSSKFTSG, 0.436 ± 0.37. On the same count and under the same terms, the result for SKEFPHMYFFGVRFVVVTKV reads -0.246 ± 0.45; that for GRYILGFE, 2.17 ± 0.17.

For the substance QNFWALGPIRRIYFVNVITN, the amyloid nucleation score was 7.315 ± 0.06. The same measure, in the same setting: the figure for ISLAVWGFSILLRIADCSMI is 0.123 ± 1.2; for LLAFL it is -0.704 ± 0.55. The same measure, in the same setting: the result for GLPKSFM reads -0.981 ± 1.3. Still for that read-out and setting: the figure for ERENAYPSIMLVCV is -0.092 ± 0.32; for HQINRWRLLPRGGTFKDGHN it is 0.703 ± 0.54; for DDWIVRHCFNCLSVWMYLRY it is 0.257 ± 0.9. Take HSIERTWPVRRPKCESKLKF: the amyloid nucleation score was -0.91 ± 1.3.

The substance LWNGIFELAYLTGVYEFRYG registered an amyloid nucleation score of 2.07 ± 0.26. Still for that read-out and setting: the figure for VRLIRTPSDIGTYIIGCREG is -0.065 ± 0.38. As to WHEHSYLENSIYITRIKINV, the amyloid nucleation score worked out at 3.18 ± 0.15. Still for that read-out and setting: the result for YGGFIESLLACAKGESRNMM reads -0.608 ± 1. Still for that read-out and setting: the result for PLSVFTTPPSDHCDIKGKIE reads -0.852 ± 2.1; that for WTLQMLAYWYLTFFFPSFVY, 0.169 ± 0.37. For the substance YVRFYLFNFVGLRQKFMI, the amyloid nucleation score worked out at 2.74 ± 0.17.

Turning to AKLWQY, the amyloid nucleation score was -0.185 ± 1.1. Same read-out and setting: the figure for DEDNFVRSHVNPLYLTSADD is 0.609 ± 0.83; for ETRTHWVRLAANNNFH it is 0.135 ± 0.88. In the case of LMVNLYPY, the amyloid nucleation score is 0.16 ± 0.4.

For PAVFCW, the amyloid nucleation score amounted to 0.387 ± 0.48. Still for that read-out and setting: the result for KFRSEGWIGCESVIKW reads 4.72 ± 0.078. Turning to LLMPDSNG, the amyloid nucleation score is -0.699 ± 0.3.

WPDISCPPCNGDRMTVKWHV displayed an amyloid nucleation score of 0.836 ± 0.97.

NWFLYWT returned an amyloid nucleation score of 3.77 ± 0.11. On the same count and under the same terms, the figure for VNSNPSSGAFWI is 0.571 ± 0.87; for RLRPTTAASSLCSVLVPR it is -0.097 ± 1.1.

The substance NYAQVLRTSFTNGVLTLKEE came in with an amyloid nucleation score of -0.526 ± 0.86. Same read-out and setting: the result for QCAYGWFRIIVITRFFCEDS reads -0.701 ± 0.37; that for IVGSLYLELYSRR, 1.57 ± 0.18. Same read-out and setting: the result for IRRRRTNIWGWAIYRAISIY reads 0.345 ± 0.4; that for HTVKAK, -2.11 ± 1.1; that for VETRRWFHRL, -0.177 ± 1.4. On the same count and under the same terms, the result for VLLTR reads 0.505 ± 0.36; that for CTHRSFFSSNAIAVRLDLSW, “inactive”.

Take IISGIIIRYIDYNYRD: the amyloid nucleation score entry was “inactive”.

In turn, PLPPLVMLPQ had an amyloid nucleation score of -0.481 ± 0.8. Same read-out and setting: the figure for RNCLFVFGSLGYCSERAYKL is 6.7 ± 0.087; for YFSYSLQKTAARRGVVMFTQ it is -0.378 ± 1.4.

Substance SEVSISGVVYFDHREVVEV showed an amyloid nucleation score of -0.165 ± 1.4. Same read-out and setting: the result for LRRPVRSTLNGMRMSQHTRR reads -0.164 ± 0.66; that for WYVLCYGPRFFYMSRLS, -0.411 ± 0.3; that for KTASLRRVG, -0.071 ± 0.32.

In turn, VSAVDMMYHLLHRILGIIAC came in with an amyloid nucleation score of 1.48 ± 0.55. The same measure, in the same setting: the result for VWRKTLRWPLGPWAGRS reads -1.11 ± 0.46; that for LALGPLHSVLRGVINMGYGI, -0.88 ± 1.7.

The nature of another data set: amyloid nucleation score (Sup35N fusion, yeast selection) (log enrichment); library NNK2; higher = more nucleation; inactive = no reads after selection. In short, it runs like this:
as §1
In the case of FFSLSQQYSRSVIVYAKLHL, the amyloid nucleation score is -0.98 ± 0.54. Same read-out and setting: the entry for NLVILFGKWRRFLFAQWNWF is “inactive”. Same read-out and setting: the figure for TNCSPVVPSCD is 0.224 ± 0.57; for RQVGNHSTYGLFNVQTRLRL it is 2.52 ± 0.079; for SCWRRMSSITPG it is 1.68 ± 0.47.

KERNRRAEAGSYNYVGVWVT yielded an amyloid nucleation score of 0.951 ± 0.81.

FCDVQDFAVLSGVELLNLSY: the amyloid nucleation score is -0.751 ± 0.39. Still for that read-out and setting: the result for CCVDDRWVDARPWGSRNSRA reads 0.491 ± 0.57; that for ACQYLGLETPKWCGINRWGL, 0.324 ± 0.26; that for TGRTTF, “inactive”. The substance FCMNTQH returned an amyloid nucleation score of 5.288 ± 0.042.

The substance LVYLIGSGNLQRISFPQRRV gave an amyloid nucleation score of 5.51 ± 0.067.

In turn, RIYNYWTIARKFFRV came in with an amyloid nucleation score of -1.24 ± 0.55.

Substance RAMHQDSVFVRWVEPPYCWC came in with an amyloid nucleation score of -0.024 ± 1. Take GVTLNSCFFNRVYLTLFGIN: the amyloid nucleation score is 6.946 ± 0.031. Still for that read-out and setting: the result for GCHICHRWIKSVYRSNHALM reads 0.291 ± 0.33; that for HYWIVRLDAWVSQSVRWCNP, 10.95 ± 0.079; that for LIEFAFVQFCNIVIEP, 7.102 ± 0.031. The same measure, in the same setting: the figure for FIDDSDFKYSYSAQFVCLID is 4.91 ± 0.1; for IMWRTERINNYVDSV it is -0.846 ± 0.45; for VKTRCVVHCMNNFPGCMIEL it is 6.887 ± 0.065. Turning to NMFTETDRILVLFIRCLVDC, the amyloid nucleation score is 0.305 ± 1. In turn, DSASNVW had an amyloid nucleation score of 0.553 ± 0.37. Still for that read-out and setting: the result for DVIYNERTYLLFLTPHTMVV reads -0.991 ± 0.63. On the same count and under the same terms, the figure for YMTPVLDSHSFADVSAIRCV is 0.212 ± 0.39; for SLNILDCFTCGYMTSDISVA it is -0.674 ± 0.32.

For FRNPHYASHGQYHYRFNMRY, the amyloid nucleation score result was “inactive”. The same measure, in the same setting: the result for ITTAYGGTIEMIRELNVASV reads 0.42 ± 0.47; that for TCCRLILYGILINNLRAWSH, 4.01 ± 0.073; that for VNCIASSFSLPRRTLSNSMD, “inactive”.

WHWISAYCTFICRKVLKEMP showed an amyloid nucleation score of 0.478 ± 0.4.

Regarding PMCYSVSSNLWVTTLQWGYL, the amyloid nucleation score amounted to 2.56 ± 0.14.

ANLRLYICWGFDKSVINIKS came in with an amyloid nucleation score of 6.908 ± 0.038. Same read-out and setting: the result for HDYGLCTGVDIWITLSCCDR reads 9.637 ± 0.029; that for KNDFLNM, “inactive”. Regarding NITMMGLVVTFVAISVRLSL, the amyloid nucleation score stood at 0.959 ± 0.47. The same measure, in the same setting: the result for HCRYWVCCQLLVILTYSEAF reads “inactive”. Same read-out and setting: the figure for FDVSFILSL is -1.34 ± 1; for QRCISGNTNSVCRLEYRWLM it is 0.396 ± 0.44; for GSAGNYRRY it is 0.167 ± 0.56.
